# US7470668B2, “Method of use of specific natriuretic peptide receptor c ligands, transgenic non-human mammals expressing specific natriuretic peptide receptor c antagonists and cells thereof” (Enobia Pharma Inc., priority 2005, dated 2008)
# T1: rat GC-A (Rattus norvegicus, UniProt P18910)
# T1 construct: expressed in transfected cells; host or cells: HEK293, transient, CMV-driven pBK plasmid (gift of Dr. A. De Léan)
# T1 sequence (P18910 29-1057): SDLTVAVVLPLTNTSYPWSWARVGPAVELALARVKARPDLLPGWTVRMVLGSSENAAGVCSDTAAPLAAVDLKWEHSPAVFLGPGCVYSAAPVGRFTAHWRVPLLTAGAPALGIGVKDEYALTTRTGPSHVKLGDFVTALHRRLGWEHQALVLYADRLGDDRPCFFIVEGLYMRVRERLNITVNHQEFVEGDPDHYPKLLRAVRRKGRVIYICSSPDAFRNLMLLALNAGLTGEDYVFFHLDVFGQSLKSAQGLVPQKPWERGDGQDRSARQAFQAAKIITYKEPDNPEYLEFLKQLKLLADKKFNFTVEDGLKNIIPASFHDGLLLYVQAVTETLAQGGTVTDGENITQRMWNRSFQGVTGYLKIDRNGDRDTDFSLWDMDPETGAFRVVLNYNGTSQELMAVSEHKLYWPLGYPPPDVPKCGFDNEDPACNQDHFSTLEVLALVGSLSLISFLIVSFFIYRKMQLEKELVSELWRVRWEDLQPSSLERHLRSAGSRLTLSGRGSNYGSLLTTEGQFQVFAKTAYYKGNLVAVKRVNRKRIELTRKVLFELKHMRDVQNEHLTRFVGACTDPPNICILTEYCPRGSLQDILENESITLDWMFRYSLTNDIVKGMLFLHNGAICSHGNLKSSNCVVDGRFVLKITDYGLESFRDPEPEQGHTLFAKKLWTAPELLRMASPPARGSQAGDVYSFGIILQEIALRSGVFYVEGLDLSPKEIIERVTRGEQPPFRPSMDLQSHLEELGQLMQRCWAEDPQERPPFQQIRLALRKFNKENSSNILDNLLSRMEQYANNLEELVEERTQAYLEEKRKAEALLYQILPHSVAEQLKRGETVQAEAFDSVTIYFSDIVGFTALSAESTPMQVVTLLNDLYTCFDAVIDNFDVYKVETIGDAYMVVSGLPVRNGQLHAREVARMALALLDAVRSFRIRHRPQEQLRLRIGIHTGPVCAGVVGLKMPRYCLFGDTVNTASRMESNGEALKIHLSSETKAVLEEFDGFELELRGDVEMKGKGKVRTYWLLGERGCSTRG
# T2: endogenous GC-A (Homo sapiens, UniProt P16066)
# T2 sequence (P16066 33-1061): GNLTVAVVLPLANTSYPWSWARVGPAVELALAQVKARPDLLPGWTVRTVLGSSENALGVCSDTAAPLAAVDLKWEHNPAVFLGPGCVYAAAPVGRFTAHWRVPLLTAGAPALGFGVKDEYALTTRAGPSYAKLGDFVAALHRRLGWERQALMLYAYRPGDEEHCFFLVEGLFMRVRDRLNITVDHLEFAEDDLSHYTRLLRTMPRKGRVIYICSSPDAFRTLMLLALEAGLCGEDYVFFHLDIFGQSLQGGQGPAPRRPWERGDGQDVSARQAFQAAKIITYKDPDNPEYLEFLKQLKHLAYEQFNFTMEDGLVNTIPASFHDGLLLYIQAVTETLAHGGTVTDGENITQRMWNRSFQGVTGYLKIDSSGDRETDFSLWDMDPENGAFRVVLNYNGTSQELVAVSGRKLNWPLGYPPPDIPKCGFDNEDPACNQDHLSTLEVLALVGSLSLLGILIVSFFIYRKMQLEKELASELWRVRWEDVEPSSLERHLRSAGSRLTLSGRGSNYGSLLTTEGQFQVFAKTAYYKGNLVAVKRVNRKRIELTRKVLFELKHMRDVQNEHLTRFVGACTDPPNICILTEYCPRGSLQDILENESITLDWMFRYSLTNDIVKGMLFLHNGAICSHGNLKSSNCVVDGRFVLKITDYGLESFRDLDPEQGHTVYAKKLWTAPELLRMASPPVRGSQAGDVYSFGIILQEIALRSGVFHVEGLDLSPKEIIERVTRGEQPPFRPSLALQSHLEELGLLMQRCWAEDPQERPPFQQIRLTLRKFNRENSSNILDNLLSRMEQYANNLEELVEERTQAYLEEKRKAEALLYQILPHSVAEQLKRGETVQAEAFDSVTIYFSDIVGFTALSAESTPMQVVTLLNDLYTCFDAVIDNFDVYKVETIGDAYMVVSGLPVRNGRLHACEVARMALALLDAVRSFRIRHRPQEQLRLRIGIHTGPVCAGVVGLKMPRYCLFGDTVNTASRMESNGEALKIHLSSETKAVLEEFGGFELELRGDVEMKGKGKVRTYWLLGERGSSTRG
# Tests used:
# rat GC-A = molecular target: T1, rat GC-A; assay: Intracellular cGMP in GC-A transfected HEK293 cells; format: cell-based; conditions: 10 nM peptide, 15 min
# endogenous GC-A = molecular target: T2, endogenous GC-A; assay: ANP-stimulated cGMP in GFP-transfected HEK293 cells (endogenous GC-A); conditions: co-incubation with 10 nM peptide (data not shown)
molecule,measurement,setting,value
"rhOstn[27-133]: N-terminal 6 histidine-tagged recombinant human Ostn amino acids 27-133 produced in E.coli, SEQ ID NO: 57 (protein, N-terminal His6 tag; recombinant mature osteocrin) SVDVTTTEAFDSGVIDVQSTPTVREEKSATDLTAKLLLLDELVSLENDVIETKKKRSFSGFGSPLDRLSAGSVDHKGKQRKVVDHPKRRFGIPMDRIGRNRLSNSRG",intracellular cGMP response via GC-A,rat GC-A,failed to activate
same,effect on ANP signalling,endogenous GC-A,no effect
